± gives the uncertainty stated by the source.
Test: self-splicing fitness, log relative to wild type (ln ratio); higher = more splicing; Tetrahymena group I intron in knt gene, E. coli kanamycin selection, DiMSum; sequences stand for … in CUCUCU…GGAGGGAAAAGUUAUCAGGCAUGCACCUGGUAGCUAGUCUUUAAACCAAUAGAUUGCAUCGGUUUAAAAGGCAAGACCGUCAAAUUGCGGGAAAGGGGUCAACAGCCGUUCAGUACCAAGUCUCAGGGGAAACUUUGAGAUGGCCUUGCAAAGGGUAUGGUAAUAAGCUGACGGACAUGGUCCUAACCACGCAGCCAAGUCCUAAGUCAACAGAUCUUCUGUUGAUAUGGAUGCAGUUCACAGACUAAAUGUCGGUCGGGGAAGAUGUAUUCUUCUCAUAAGAUAUAGUCGGACCUCUCCUUAAUGGGAGCUAGCGGAUGAAGUGAUGCAACACUGGAGCCGCUGGGAACUAAUUUGUAUGCGAAAGUAUAUUGAUUAGUUUUGGAGUACUCGUGGUCG
Outline: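 Library with all eight P1ex-region intron nucleotides randomised, intron inside the knt kanamycin-resistance gene on pET-22b(+), in E. coli BL21(DE3). Cells grew overnight at 37°C or 30°C on LB agar with or without 25 μg/mL kanamycin (plus 100 μg/mL carbenicillin, 50 μM IPTG, 0.2% rhamnose), in six replicate transformations. Pooled colonies were amplicon-sequenced on Illumina HiSeq 2500. DiMSum fitness is the error-weighted combination of wild-type-normalised replicate fold changes, kanamycin versus none.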

Sequence | self-splicing fitness (ln) (30 °C) | self-splicing fitness (ln) (37 °C)
AGACAGCAAUAUUACGUCGC | -2.96 ± 0.2 | -1.98 ± 0.19
UUCUAGCAAUAUUACGGUUG | -1.64 ± 0.11 | -1.78 ± 0.17
GAUGAGCAAUAUUACGUGUA | -2.77 ± 0.16 | -1.87 ± 0.16
ACGUAGCAAUAUUACGUUUG | -3.46 ± 0.17 | -2.95 ± 0.18
CCUCAGCAAUAUUACGAAUC | -3.45 ± 0.28 | -2.82 ± 0.31
UUGGAGCAAUAUUACGGUAU | -2.95 ± 0.26 | -1.98 ± 0.28
CAUAAGCAAUAUUACGCCUG | -2.54 ± 0.22 | -1.39 ± 0.17
CGGAAGCAAUAUUACGAAUG | -0.506 ± 0.079 | -0.137 ± 0.12
GGUCAGCAAUAUUACGACCC | -2.52 ± 0.27 | -2.43 ± 0.41
GACUAGCAAUAUUACGAUCC | -2.21 ± 0.18 | -1.57 ± 0.2
UCAGAGCAAUAUUACGAGUA | -3.89 ± 0.46 | -1.01 ± 0.14
CAGUAGCAAUAUUACGUGAA | -3.97 ± 0.34 | -2.15 ± 0.22
CACCAGCAAUAUUACGGAGA | -1.66 ± 0.11 | -2.16 ± 0.14
ACAUAGCAAUAUUACGCGCG | -0.8 ± 0.12 | -0.126 ± 0.16
GGAUAGCAAUAUUACGGCGA | -0.101 ± 0.15 | -0.302 ± 0.12
UUAGAGCAAUAUUACGGAAU | -3.79 ± 0.29 | -2.81 ± 0.25
AAUUAGCAAUAUUACGAGGA | -2.64 ± 0.26 | -0.851 ± 0.18
GAGGAGCAAUAUUACGAGAA | -1.98 ± 0.41 | -2.44 ± 0.33
CCUAAGCAAUAUUACGGUAG | -1.27 ± 0.078 | -0.941 ± 0.097
UGGUAGCAAUAUUACGCAUG | -1.33 ± 0.1 | 0.872 ± 0.14
UCACAGCAAUAUUACGGCGG | -0.848 ± 0.056 | 0.0491 ± 0.078

Sequence | self-splicing fitness (ln) (30 °C) | self-splicing fitness (ln) (37 °C)
CCAGAGCAAUAUUACGUAUU | -3.91 ± 0.18 | -2.41 ± 0.17
GAAGAGCAAUAUUACGCUGG | -1.92 ± 0.24 | 
GAUGAGCAAUAUUACGAUUG | -4.96 ± 0.45 | -2.67 ± 0.22
CCUCAGCAAUAUUACGUCAA | -4.15 ± 0.31 | -3.11 ± 0.29
UAUGAGCAAUAUUACGCUCC | -1.47 ± 0.31 | 
UGAGAGCAAUAUUACGCGUA | -2.26 ± 0.26 | -2.4 ± 0.31
UGACAGCAAUAUUACGCCCA | 0.217 ± 0.12 | 0.269 ± 0.16
ACUCAGCAAUAUUACGGUCC | -1.91 ± 0.11 | -0.708 ± 0.14
UCGGAGCAAUAUUACGUGAG | -1.65 ± 0.096 | -1.01 ± 0.12
GUCAAGCAAUAUUACGGAGG |  | -2.5 ± 0.25
ACUAAGCAAUAUUACGGCCC | -0.668 ± 0.18 | -0.484 ± 0.27
CCACAGCAAUAUUACGCGCC | -3.03 ± 0.29 | 
UUCAAGCAAUAUUACGGCAU | -1.71 ± 0.065 | -0.546 ± 0.075
UUAGAGCAAUAUUACGUAUC | -3.29 ± 0.48 | -1.22 ± 0.34
GUGGAGCAAUAUUACGGGGU | -3.24 ± 0.44 | -2.26 ± 0.42
UCCUAGCAAUAUUACGAAAA | -2.7 ± 0.43 | 
AGGUAGCAAUAUUACGCGGC | -4.05 ± 0.044 | -2.93 ± 0.048
UCGCAGCAAUAUUACGGUCU | -3.22 ± 0.2 | -1.13 ± 0.12
UUGGAGCAAUAUUACGCGUA | -3.77 ± 0.28 | -2.13 ± 0.23
GAAUAGCAAUAUUACGUUCC | -3.17 ± 0.32 | 
CAACAGCAAUAUUACGAUGU | -2.57 ± 0.11 | -1.62 ± 0.11

Sequence | self-splicing fitness (ln) (30 °C) | self-splicing fitness (ln) (37 °C)
UAAGAGCAAUAUUACGCUGC |  | -1.15 ± 0.37
GGAGAGCAAUAUUACGUUUC | -3.17 ± 0.34 | 
CGACAGCAAUAUUACGGACG | -2.24 ± 0.11 | -1.33 ± 0.15
AGAAAGCAAUAUUACGCAGU | -2.5 ± 0.16 | -2.07 ± 0.2
AGACAGCAAUAUUACGUUCC | -2.2 ± 0.16 | -1.77 ± 0.18
AGGUAGCAAUAUUACGUCGU | -1.761 ± 0.015 | -0.841 ± 0.034
GUUCAGCAAUAUUACGUUCA | -0.741 ± 0.12 | -0.425 ± 0.13
UGUCAGCAAUAUUACGUAAA | -0.534 ± 0.13 | -0.324 ± 0.16
UUUGAGCAAUAUUACGUUGC | -2.68 ± 0.34 | -2.29 ± 0.36
UCCCAGCAAUAUUACGCACG | -3.4 ± 0.17 | -2.6 ± 0.23
AGUAAGCAAUAUUACGCGGG | -2.82 ± 0.29 | -2.13 ± 0.29
GGAUAGCAAUAUUACGUAAA | -2.12 ± 0.17 | -1.42 ± 0.2
UGAGAGCAAUAUUACGGAAU |  | 1.01 ± 0.35
UUGUAGCAAUAUUACGGAUG | -1.9 ± 0.12 | -1.56 ± 0.15
CCUAAGCAAUAUUACGUUGA | -3.74 ± 0.25 | -1.94 ± 0.17
ACCUAGCAAUAUUACGGGGC | -3.06 ± 0.15 | -1.66 ± 0.15
CAGGAGCAAUAUUACGCAGU | -2 ± 0.31 | -1.44 ± 0.29
CCCGAGCAAUAUUACGGGGG | -3.59 ± 0.16 | -2.89 ± 0.27
CGGCAGCAAUAUUACGCUAG | -2.62 ± 0.17 | -1.34 ± 0.18
CAUUAGCAAUAUUACGACGA | -2.25 ± 0.28 | -1.6 ± 0.2
CGUUAGCAAUAUUACGUGGU | -4.09 ± 0.26 | -2.6 ± 0.28
